{"source": "patent US20240398911A1", "key": {"[1]": {"molecular_target": "myc-tagged full-length S of SARS-CoV-2 variant P.1 (Gamma) expressed on Expi293F cells (SARS-CoV-2 P.1 (Gamma))"}, "[2]": {"molecular_target": "myc-tagged full-length S of SARS-CoV-2 variant B.1.351 (Beta) expressed on Expi293F cells (SARS-CoV-2 B.1.351 (Beta))"}, "[3]": {"molecular_target": "myc-tagged full-length S of SARS-CoV-2 variant B.1.1.7 (Alpha) expressed on Expi293F cells (SARS-CoV-2 B.1.1.7 (Alpha))"}}, "data": [{"substance": "REGN10987 (imdevimab) (antibody)", "values": [{"measurement": "EC50 (read off the curve)", "setting": "[1]", "result": 0.2, "unit": "nM"}, {"measurement": "EC50 (read off the curve)", "setting": "[2]", "result": 0.3, "unit": "nM"}]}, {"substance": "sACE22.v2.4 fused to human IgG1 Fc (Fc fusion)", "values": [{"measurement": "EC50 (read off the curve)", "setting": "[3]", "result": 0.7, "unit": "nM"}, {"measurement": "EC50 (read off the curve)", "setting": "[1]", "result": 0.8, "unit": "nM"}]}]}
